From patent publication US20220017622A1 (Pfizer, published 2022)
Values joined by “and” are separate entries in the source; they are usually repeats but may differ in a detail not shown here. Equal values may be shown once.

T1: human B7-H4 extracellular domain (human, UniProt Q7Z7D3 29-258)
T1 construct: For SPR it says only human B7-H4 ECD; also called Hu B7-H4 ECD; huB7-H4 ECD
T1 sequence: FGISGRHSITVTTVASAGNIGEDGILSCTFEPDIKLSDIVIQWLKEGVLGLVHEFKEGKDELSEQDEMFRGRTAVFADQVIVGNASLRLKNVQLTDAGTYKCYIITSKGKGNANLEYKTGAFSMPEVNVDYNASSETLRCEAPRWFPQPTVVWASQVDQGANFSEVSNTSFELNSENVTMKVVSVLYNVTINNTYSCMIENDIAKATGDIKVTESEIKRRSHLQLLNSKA

T2: human B7-H4 extracellular domain (human, UniProt Q7Z7D3 29-258)
T2 construct: Soluble ECD used as SPR analyte; also called huB7-H4 ECD; huB7-H4
T2 sequence: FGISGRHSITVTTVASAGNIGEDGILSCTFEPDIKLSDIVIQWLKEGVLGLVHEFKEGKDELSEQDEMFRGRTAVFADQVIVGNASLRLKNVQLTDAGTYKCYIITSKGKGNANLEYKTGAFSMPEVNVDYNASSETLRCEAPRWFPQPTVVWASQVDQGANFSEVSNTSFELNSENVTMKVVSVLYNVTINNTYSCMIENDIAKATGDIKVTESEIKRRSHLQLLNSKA


What was measured:
[1] = molecular target: T1, human B7-H4 extracellular domain; assay: competition ELISA on coated huB7-H4 ECD; competitor biotinylated 0052 (by series, not given)
[2] = molecular target: T2, human B7-H4 extracellular domain; assay: SPR 37 C; IgG1 on anti-hFc chip, ECD analyte;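 further: antibodies captured, then B7-H4 ECD injected at five 3-fold dilutions from 300 nM, 65 s association and 600 s dissociation, fitted to a 1:1 Langmuir model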
[3] = molecular target: T1, human B7-H4 extracellular domain; assay: competition ELISA on coated huB7-H4 ECD; competitor biotinylated 0058 (by series, not given)

Binder	IC50 [1]	Kd [2]	koff [2]	kon [2]	IC50 [3]
B7-H4 antibody 0386 (antibody, human IgG1, kappa, V domains shown) VH: QVQLQQWGAGLLKPSETLPLTCAVYGGSFSGYYWNWIRQPPGKGLEWIGEINHSGSATYNPSLKSRVTISVDTSKNHFSLKLSSVTAADTAVYFCARGLYNWNVDHWGQGTLVTVSS VL: DIQMTQSPSSLSASVGDRVTITCRASQGIRNDLGWYQQKPGKAPKRLIYAASSLQSGVPSRFSGSGSGTDFTLTISSLQPEDFATYYCLQHASYPRTFGGGTKVEIKR	9.2 nM				
B7-H4 antibody 0283 (antibody, human IgG1, kappa, V domains shown) VH: QVQLQQWGAGLLKPSETLPLTCAVYGGSFSGYYWNWIRQPPGKGLEWIGEINHSGSATYNPSLKSRVTISVDTSKNHFSLKLSSVTAADTAVYFCARGLYNWNVDHWGQGTLVTVSS VL: DIQMTQSPSSLSASVGDRVTITCRASQGIRNDLGWYQQKPGKAPKRLIYAASSLQSGVPSRFSGSGSGTDFTLTISSLQPEDFATYYCLQHNSYPRTFGGGTKVEIKR	7.2 nM and 12.9 nM				
B7-H4 antibody 0270 (antibody, human IgG1, kappa, V domains shown) VH: QVQLQQWGAGLLKPSETLSLTCAVYGGSFSGYYWNWIRQPPGKGLEWIGEINHSGSTKYNPSLKSRVTISGDTSKNQFSLKLNSVTAADTAVYYCVRGLYNWNVDSWGQGTLVTVSS VL: DIQMTQSPSSLSASVGDRVTITCRASQGIRNDLGWYQQKPGKAPKRLIYVASSLQSGVPSRFSGSGSGTDFTLTISSLQPEDFATYYCLQHNSYPYTFGQGTKLEIKR	9.07 nM				
B7-H4 antibody 0279 (antibody, human IgG1, kappa, V domains shown) VH: EVQLVESGGGLVQPGGSLRLSCAVSGGSFSGYYWNWVRQAPGKGLEWIGEINHSGSATYNPSLKSRFTISVDTAKNSFYLQMNSLRAEDTAVYYCARGLYNWNVDHWGQGTLVTVSS VL: DIQMTQSPSSLSASVGDRVTITCRASQGIRNDLGWYQQKPGKAPKRLIYAASSLQSGVPSRFSGSGSGTEFTLTISSLQPEDFATYYCLQHNSYPRTFGGGTKVEIKR	5.94 nM and 14.9 nM				
B7-H4 antibody 1080 (antibody, human IgG1, kappa, V domains shown, IgG1 mAb format) VH: EVQLVESGGGLVQPGGSLRLSCAVSGGSFSGYYWNWIRQPPGKGLEWIGEINHSGSATYNPSLKSRVTISVDTAKNSLYLQMNSLRAEDTAVYYCARGLYNWNVDHWGQGTLVTVSS VL: DIQMTQSPSSLSASVGDRVTITCRASQGIRNDLGWYQQKPGKAPKRLIYAASSLQSGVPSRFSGSGSGTDFTLTISSLQPEDFATYYCLQHNAYPRTFGGGTKVEIKR		13.8 nM	0.0054 s⁻¹	392000 M⁻¹ s⁻¹	
B7-H4 antibody 0277 (antibody, human IgG1, kappa, V domains shown) VH: EVQLVESGGGLVQPGGSLRLSCAASGGSFSGYYWNWVRQAPGKGLEWVAEINHSGSATYNPSLKSRFTISRDNAKNSLYLQMNSLRAEDTAVYYCARGLYNWNVDHWGQGTLVTVSS VL: DIQMTQSPSSLSASVGDRVTITCRASQGIRNDLGWYQQKPGKAPKRLIYAASSLQSGVPSRFSGSGSGTEFTLTISSLQPEDFATYYCLQHNSYPRTFGGGTKVEIKR	19 nM				
B7-H4 antibody 0388 (antibody, human IgG1, kappa, V domains shown) VH: QVQLQQWGAGLLKPSETLPLTCAVYGGSFSGYYWNWIRQPPGKGLEWIGEINHSGSATYNPSLKSRVTISVDTSKNHFSLKLSSVTAADTAVYFCARGLYNWNVDHWGQGTLVTVSS VL: DIQMTQSPSSLSASVGDRVTITCRASQGIRNDLGWYQQKPGKAPKRLIYAASSLQSGVPSRFSGSGSGTDFTLTISSLQPEDFATYYCLQHNAYPYTFGQGTKLEIKR	11.3 nM				
B7-H4 antibody 0267 (antibody, human IgG1, kappa, V domains shown) VH: EVQLVESGGGLVQPGGSLRLSCAASGGSFSGYYWNWVRQAPGKGLEWIGEINHSGSTKYNPSLKSRFTISGDNAKNSFYLQMNSLRAEDTAVYYCVRGLYNWNVDSWGQGTLVTVSS VL: DIQMTQSPSSLSASVGDRVTITCRASQGIRNDLGWYQQKPGKAPKRLIYVASSLQSGVPSRFSGSGSGTEFTLTISSLQPEDFATYYCLQHNSYPYTFGQGTKLEIKR	9.42 nM				
B7-H4 antibody 0390 (antibody, human IgG1, kappa, V domains shown) VH: QVQLQQWGAGLLKPSETLPLTCAVYGGSFSGYYWNWIRQPPGKGLEWIGEINHSGSATYNPSLKSRVTISVDTSKNHFSLKLSSVTAADTAVYFCARGLYNWNVDHWGQGTLVTVSS VL: DIQMTQSPSSLSASVGDRVTITCRASQGIRNDLGWYQQKPGKAPKRLIYAASSLQSGVPSRFSGSGSGTDFTLTISSLQPEDFATYYCLQHQSYPYTFGQGTKLEIKR	15.2 nM				
B7-H4 antibody 0119 (antibody, human IgG1, kappa, V domains shown) VH: EVQLLESGGGLVQPGGSLRLSCAASGFTFSSYAMSWVRQAPGKGLEWVSAISGGGGSTYYADSVKGRFTISRDNSKNTLYLQMNSLRAEDTAVYYCARDIQWFGESTLFDYWGQGTLVTVSS VL: DIQMTQSPSSLSASVGDRVTITCRASQSIRSWLAWYQQKPGKAPKLLIYKASSLEGGVPSRFSGSGSGTDFTLTISSLQPEDFATYYCQQYNSYSRTFGQGTKVEIKR					7.52 nM and 13.7 nM

Next, values leading:

IC50 [1]	Kd [2]	koff [2]	kon [2]	IC50 [3]	Binder
	11.8 nM	0.00539 s⁻¹	454000 M⁻¹ s⁻¹		B7-H4 antibody 0934 (antibody, human IgG1, kappa, V domains shown, IgG1 mAb format) VH: EVQLVESGGGLVQPGGSLRLSCAVSGGSFSGYYWNWVRQAPGKGLEWIGEINHSGSATYNPSLKSRVTISVDTAKNSLYLQMNSLRAEDTAVYYCARGLYNWNVDHWGQGTLVTVSS VL: DIQMTQSPSSLSASVGDRVTITCRASQGIRNDLGWYQQKPGKAPKRLIYAASSLQSGVPSRFSGSGSGTDFTLTISSLQPEDFATYYCLQHSSYPRTFGGGTKVEIKR
13.6 nM					B7-H4 antibody 0391 (antibody, human IgG1, kappa, V domains shown) VH: QVQLQQWGAGLLKPSETLPLTCAVYGGSFSGYYWNWIRQPPGKGLEWIGEINHSGSATYNPSLKSRVTISVDTSKNHFSLKLSSVTAADTAVYFCARGLYNWNVDHWGQGTLVTVSS VL: DIQMTQSPSSLSASVGDRVTITCRASQGIRNDLGWYQQKPGKAPKRLIYAASSLQSGVPSRFSGSGSGTDFTLTISSLQPEDFATYYCLQHASYPYTFGQGTKLEIKR
	33.4 nM	0.00962 s⁻¹	288000 M⁻¹ s⁻¹		B7-H4 antibody 1081 (antibody, human IgG1, kappa, V domains shown, IgG1 mAb format) VH: EVQLVESGGGLVQPGGSLRLSCAVSGGSFSGYYWNWIRQPPGKGLEWIGEIDHQGSTKYNPSLKSRVTISVDTAKNSFYLQMNSLRAEDTAVYYCARGLYNWNVDHWGQGTLVTVSS VL: DIQMTQSPSSLSASVGDRVTITCRASQGIRNDLGWYQQKPGKAPKRLIYAASSLQSGVPSRFSGSGSGTDFTLTISSLQPEDFATYYCLQHNAYPRTFGGGTKVEIKR
	22.6 nM	0.0086 s⁻¹	381000 M⁻¹ s⁻¹		B7-H4 antibody 1083 (antibody, human IgG1, kappa, V domains shown, IgG1 mAb format) VH: EVQLVESGGGLVQPGGSLRLSCAASGGSFSGYYWNWIRQPPGKGLEWIGEINHSGSATYNPSLKSRVTISVDTAKNSFYLQMNSLRAEDTAVYYCARGLYNWNVDHWGQGTLVTVSS VL: DIQMTQSPSSLSASVGDRVTITCRASQGIRNDLGWYQQKPGKAPKRLIYAASSLQSGVPSRFSGSGSGTDFTLTISSLQPEDFATYYCLQHNAYPRTFGGGTKVEIKR
	2.05 nM	0.00126 s⁻¹	612000 M⁻¹ s⁻¹		B7-H4 antibody 1116 (antibody, human IgG1, kappa, V domains shown, IgG1 mAb format) VH: EVQLLESGGGLVQPGGSLRLSCAASGFTFSSYAMSWVRQAPGKGLEWVSAISGGGGSTYYADSVKGRFTISRDNSKNTLYLQMNSLRAEDTAVYYCARDIQWYGESTLFDYWGQGTLVTVSS VL: DIQMTQSPSSLSASVGDRVTITCRASQSTRSWLAWHQQKPGKAPKLLIYKASSLESGVPSRFSGSGSGTDFTLTISSLQPEDFATYYCQQYGSYSRTFGQGTKVEIKR
	4.31 nM	0.00108 s⁻¹	251000 M⁻¹ s⁻¹		B7-H4 antibody 1113 (antibody, human IgG1, kappa, V domains shown, IgG1 mAb format) VH: EVQLLESGGGLVQPGGSLRLSCAASGFTFSSYAMSWVRQAPGKGLEWVSAISGGGGSTYYADSVKGRFTISRDNSKNTLYLQMNSLRAEDTAVYYCARDIQWYGESTLFDYWGQGTLVTVSS VL: DIQMTQSPSSLSASVGDRVTITCRASQSTRSWLAWYQQKPGKAPKLLIYKASSLEGGVPSRFSGSGSGTDFTLTISSLQPEDFATYYCQQYGSYSRTFGQGTKVEIKR
	2.62 nM	0.00116 s⁻¹	443000 M⁻¹ s⁻¹		B7-H4 antibody 1115 (antibody, human IgG1, kappa, V domains shown, IgG1 mAb format) VH: EVQLLESGGGLVQPGGSLRLSCAASGFTFSSYAMSWVRQAPGKGLEWVSAISGGGGSTYYADSVKGRFTISRDNSKNTLYLQMNSLRAEDTAVYYCARDIQWYGESTLFDYWGQGTLVTVSS VL: DIQMTQSPSSLSASVGDRVTITCRASQSTRSWLAWYQQKPGKAPKLLIYKASSLESGVPSRFSGSGSGTDFTLTISSLQPEDFATYYCQQYGSYSRTFGQGTKVEIKR
				6.57 nM and 8 nM	B7-H4 antibody 0414 (antibody, human IgG1, kappa, V domains shown) VH: EVQLLESGGGLVQPGGSLRLSCAASGFTFSSYAMSWVRQAPGKGLEWVSAISGGGGSTYYADSVKGRFTISRDNSKNTLYLQMNSLRAEDTAVYYCARDIQWFGESTLFDYWGQGTLVTVSS VL: DIQMTQSPSSLSASVGDRVTITCRASQSTRSWLAWYQQKPGKAPKLLIYKASSLEGGVPSRFSGSGSGTDFTLTISSLQPEDFATYYCQQYGSYSRTFGQGTKVEIKR
	1.54 nM	0.000949 s⁻¹	620000 M⁻¹ s⁻¹		B7-H4 antibody 1117 (antibody, human IgG1, kappa, V domains shown, IgG1 mAb format) VH: EVQLLESGGGLVQPGGSLRLSCAASGFTFSSYAMSWVRQAPGKGLEWVSAISGGGGSTYYADSVKGRFTISRDNSKNTLYLQMNSLRAEDTAVYYCARDIQWYGESTLFDYWGQGTLVTVSS VL: DIQMTQSPSSLSASVGDRVTITCRASQSTRSWLAWLQQKPGKAPKLLIYKASSLESGVPSRFSGSGSGTDFTLTISSLQPEDFATYYCQQYGSYSRTFGQGTKVEIKR
